Assay results published in patent US20230212549A1 (3B PHARMACEUTICALS, published 2023).
Numbered stars: 1 amine (or outer) side, 2 acyl side, 3 side chain; on linkers, the order of the positions; unused ones are H or OH. Bridge positions count the residues as written; N and C are the ends. Square brackets hold non-standard residues; d marks the D form. Primed or numbered codes have the meaning given here. * marks the point of attachment. Ttds″ = 1,13-diamino-4,7,10-trioxatridecan-succinamic acid spacer, O=C(CCC(=O)[*:2])NCCCOCCOCCOCCCN[*:1]; TBMB(SCH2CH2NH-DOTA) = O=C(O)CN1CCN(CC(=O)O)CCN(CC(=O)NCCSCc2cc(C[*:1])cc(C[*:2])c2)CCN(CC(=O)O)CC1; Ttds(4) = spacer between chelator and peptide, O=C(CCC(=O)[*:2])NCCCOCCOCCOCCCN[*:1]; N4Ac = 6-Carboxy-1,4,8,11-tetraazaundecane, an N4-chelator, NCCNCC(CNCCN)C(=O)*; DOTA = O=C(O)CN1CCN(CC(=O)O)CCN(CC(=O)*)CCN(CC(=O)O)CC1; nBu‑CAyl = n-butylaminocarbonyl, CCCCNC(=O)*; mXylylene = c1cc(C[*:1])cc(C[*:2])c1; Pentanesulfonyl = CCCCCS(=O)(=O)*; Nle = CCCC[C@H](N)C(=O)O; Hexanoyl = CCCCCC(=O)*; Sar = CNCC(=O)O

T1: recombinant human PREP (R&D systems, #4308-SE) (human, UniProt P48147 1-710)
T1 sequence: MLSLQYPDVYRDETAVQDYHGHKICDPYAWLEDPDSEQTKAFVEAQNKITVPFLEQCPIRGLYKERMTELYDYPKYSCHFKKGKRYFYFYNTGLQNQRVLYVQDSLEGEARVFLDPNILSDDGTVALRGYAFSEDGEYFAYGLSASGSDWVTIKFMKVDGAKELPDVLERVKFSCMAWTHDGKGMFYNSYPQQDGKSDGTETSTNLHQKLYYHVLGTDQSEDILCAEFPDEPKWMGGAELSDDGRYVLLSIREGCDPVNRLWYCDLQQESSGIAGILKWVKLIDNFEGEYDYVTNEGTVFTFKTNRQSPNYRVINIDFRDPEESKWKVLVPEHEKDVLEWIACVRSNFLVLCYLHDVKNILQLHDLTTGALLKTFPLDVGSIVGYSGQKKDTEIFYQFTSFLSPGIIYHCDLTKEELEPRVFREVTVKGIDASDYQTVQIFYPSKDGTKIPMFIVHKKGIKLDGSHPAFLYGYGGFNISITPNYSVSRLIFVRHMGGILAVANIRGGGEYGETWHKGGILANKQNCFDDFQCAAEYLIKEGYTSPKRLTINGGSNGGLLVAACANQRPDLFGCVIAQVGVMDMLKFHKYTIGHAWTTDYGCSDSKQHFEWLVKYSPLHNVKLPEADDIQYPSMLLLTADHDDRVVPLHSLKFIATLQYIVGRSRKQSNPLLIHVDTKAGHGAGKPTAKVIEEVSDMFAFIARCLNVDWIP

B1: nBu-CAyl-[Cys(tMeBn(DOTA-AET))-Nmg-Pro-Thr-Gln-Phe-Cys]-OH (peptide)
peptide: {nBu‑CAyl}-C[Sar]PTQFC-OH
modifications: linker 1-7 via TBMB(SCH2CH2NH-DOTA)
SMILES: CCCCNC(=O)N[C@H]1CSCc2cc(CSCCNC(=O)CN3CCN(CC(=O)O)CCN(CC(=O)O)CCN(CC(=O)O)CC3)cc(c2)CSC[C@@H](C(=O)O)NC(=O)[C@H](Cc2ccccc2)NC(=O)[C@H](CCC(N)=O)NC(=O)[C@H]([C@@H](C)O)NC(=O)[C@@H]2CCCN2C(=O)CN(C)C1=O
notes: also called 3BP-4607
B2: N4Ac-Ttds-Nle-[Cys-(3MeBn)-Pro-Pro-Thr-Glu-Phe-Cys]-OH (peptide)
peptide: N4Ac-[Ttds″][Nle]CPPTEFC-OH
modifications: linker 3-9 via mXylylene
SMILES: CCCC[C@H](NC(=O)CCC(=O)NCCCOCCOCCOCCCNC(=O)C(CNCCN)CNCCN)C(=O)N[C@H]1CSCc2cccc(c2)CSC[C@@H](C(=O)O)NC(=O)[C@H](Cc2ccccc2)NC(=O)[C@H](CCC(=O)O)NC(=O)[C@H]([C@@H](C)O)NC(=O)[C@@H]2CCCN2C(=O)[C@@H]2CCCN2C1=O
notes: also called 3BP-4161
B3: nBu-CAyl-[Cys(tMeBn(DOTA-AET))-Nmg-Pro-Thr-Gln-Phe-Cys]-NH2 (peptide)
peptide: {nBu‑CAyl}-C[Sar]PTQFC-NH2
modifications: linker 1-7 via TBMB(SCH2CH2NH-DOTA)
SMILES: CCCCNC(=O)N[C@H]1CSCc2cc(CSCCNC(=O)CN3CCN(CC(=O)O)CCN(CC(=O)O)CCN(CC(=O)O)CC3)cc(c2)CSC[C@@H](C(N)=O)NC(=O)[C@H](Cc2ccccc2)NC(=O)[C@H](CCC(N)=O)NC(=O)[C@H]([C@@H](C)O)NC(=O)[C@@H]2CCCN2C(=O)CN(C)C1=O
notes: also called 3BP-4621
B4: Hex-[Cys(tMeBn(InDOTA-AET))-Nmg-Pro-Thr-Gln-Phe-Cys]-OH (peptide)
peptide: Hexanoyl-C[Sar]PTQFC-OH
modifications: linker 1-7 via tMeBn(InDOTA-AET); not fully specified (residue 1); printed as Hex--[C(tMeBn(InDOTA--AET))--Nmg-PTQFC]-OH; also: DOTA complexing indium
notes: also called 3BP-3716
B5: Hex-[Cys(3MeBn)-Pro-Pro-Thr-Glu-Phe-Cys]-Asp-His-Phe-Arg-Asp-Ttds-Lys(DOTA)-NH2 (peptide)
peptide: Hexanoyl-CPPTEFCDHFRD[Ttds″]K(DOTA)-NH2
modifications: linker 1-7 via mXylylene
SMILES: CCCCCC(=O)N[C@H]1CSCc2cccc(c2)CSC[C@@H](C(=O)N[C@@H](CC(=O)O)C(=O)N[C@@H](Cc2c[nH]cn2)C(=O)N[C@@H](Cc2ccccc2)C(=O)N[C@@H](CCCNC(=N)N)C(=O)N[C@@H](CC(=O)O)C(=O)NCCCOCCOCCOCCCNC(=O)CCC(=O)N[C@@H](CCCCNC(=O)CN2CCN(CC(=O)O)CCN(CC(=O)O)CCN(CC(=O)O)CC2)C(N)=O)NC(=O)[C@H](Cc2ccccc2)NC(=O)[C@H](CCC(=O)O)NC(=O)[C@H]([C@@H](C)O)NC(=O)[C@@H]2CCCN2C(=O)[C@@H]2CCCN2C1=O
B6: DOTA-Ttds-Nle-[Cys(3MeBn)-Pro-Pro-Thr-Glu-Phe-Cys]-Asp-His-Phe-Arg-Asp-NH2 (peptide)
peptide: {DOTA}-[Ttds(4)][Nle]CPPTEFCDHFRD-NH2
modifications: linker 3-9 via mXylylene
SMILES: CCCC[C@H](NC(=O)CCC(=O)NCCCOCCOCCOCCCNC(=O)CN1CCN(CC(=O)O)CCN(CC(=O)O)CCN(CC(=O)O)CC1)C(=O)N[C@H]1CSCc2cccc(c2)CSC[C@@H](C(=O)N[C@@H](CC(=O)O)C(=O)N[C@@H](Cc2c[nH]cn2)C(=O)N[C@@H](Cc2ccccc2)C(=O)N[C@@H](CCCNC(=N)N)C(=O)N[C@@H](CC(=O)O)C(N)=O)NC(=O)[C@H](Cc2ccccc2)NC(=O)[C@H](CCC(=O)O)NC(=O)[C@H]([C@@H](C)O)NC(=O)[C@@H]2CCCN2C(=O)[C@@H]2CCCN2C1=O

What follows are binders tested against T2, Recombinant human FAP (R&D systems, #3715-SE) (human, UniProt Q12884 26-760) (assay: cell-based or functional assay).

Binder	pIC50 Category (Activity) [pIC50]
B1	> 8
B2	> 8
B3	> 8
B4	> 8
Pentanesulfonyl-CPPTQFCD-NH2 (linker 1-7 via tMeBn(InDOTA-PP); also: In complex of DOTA (InDOTA), also called 3BP-3717) [Pentyl-SO2-[Cys(tMeBn(InDOTA-PP))-Pro-Pro-Thr-Gln-Phe-Cys]-Asp-NH2]	> 8
Hexanoyl-CPPTQFCG-OH (linker 1-7 via tMeBn(InDOTA-AET); also: In complex (InDOTA), also called 3BP-3714) [Hex-[Cys(tMeBn(InDOTA-AET))-Pro-Pro-Thr-Gln-Phe-Cys]-Gly-OH]	> 8

The binders below were run against T2, Recombinant human FAP (R&D systems, …) (assay: SPR (Biacore T200), FAP captured on anti-FAP antibody, single cycle kinetics).

Binder	pKD Category [pKD]
B5	> 8
B6	> 8
B2	> 8
B4	> 8
Pentanesulfonyl-CPPTQFCD-NH2 (linker 1-7 via tMeBn(InDOTA-PP); also: In complex of DOTA (InDOTA), also called 3BP-3717) [Pentyl-SO2-[Cys(tMeBn(InDOTA-PP))-Pro-Pro-Thr-Gln-Phe-Cys]-Asp-NH2]	> 8
Hexanoyl-CPPTQFCG-OH (linker 1-7 via tMeBn(InDOTA-AET); also: In complex (InDOTA), also called 3BP-3714) [Hex-[Cys(tMeBn(InDOTA-AET))-Pro-Pro-Thr-Gln-Phe-Cys]-Gly-OH]	> 8

What follows are binders tested against T3, human fibroblast activation protein (FAP) on WI-38 fibroblasts (human, UniProt Q12884 1-760) (assay: competitive FACS, WI-38 cells, Cy5-labeled peptide as competitor).
T3 construct: FAP-expressing human WI-38 fibroblasts (ECACC)

Binder	pIC50 Category (FACS) [pIC50]
B1	> 8
B2	> 8
B3	> 8
B4	> 8
Pentanesulfonyl-CPPTQFCD-NH2 (linker 1-7 via tMeBn(InDOTA-PP); also: In complex of DOTA (InDOTA), also called 3BP-3717) [Pentyl-SO2-[Cys(tMeBn(InDOTA-PP))-Pro-Pro-Thr-Gln-Phe-Cys]-Asp-NH2]	> 8
Hexanoyl-CPPTQFCG-OH (linker 1-7 via tMeBn(InDOTA-AET); also: In complex (InDOTA), also called 3BP-3714) [Hex-[Cys(tMeBn(InDOTA-AET))-Pro-Pro-Thr-Gln-Phe-Cys]-Gly-OH]	> 8

What follows are binders tested against Recombinant human DPP4 (R&D systems, #9168-SE) (human, UniProt P27487 29-766) (assay: cell-based or functional assay).
Chain of Recombinant human DPP4 (R&D systems, #9168-SE) (P27487 29-766 limits assumed): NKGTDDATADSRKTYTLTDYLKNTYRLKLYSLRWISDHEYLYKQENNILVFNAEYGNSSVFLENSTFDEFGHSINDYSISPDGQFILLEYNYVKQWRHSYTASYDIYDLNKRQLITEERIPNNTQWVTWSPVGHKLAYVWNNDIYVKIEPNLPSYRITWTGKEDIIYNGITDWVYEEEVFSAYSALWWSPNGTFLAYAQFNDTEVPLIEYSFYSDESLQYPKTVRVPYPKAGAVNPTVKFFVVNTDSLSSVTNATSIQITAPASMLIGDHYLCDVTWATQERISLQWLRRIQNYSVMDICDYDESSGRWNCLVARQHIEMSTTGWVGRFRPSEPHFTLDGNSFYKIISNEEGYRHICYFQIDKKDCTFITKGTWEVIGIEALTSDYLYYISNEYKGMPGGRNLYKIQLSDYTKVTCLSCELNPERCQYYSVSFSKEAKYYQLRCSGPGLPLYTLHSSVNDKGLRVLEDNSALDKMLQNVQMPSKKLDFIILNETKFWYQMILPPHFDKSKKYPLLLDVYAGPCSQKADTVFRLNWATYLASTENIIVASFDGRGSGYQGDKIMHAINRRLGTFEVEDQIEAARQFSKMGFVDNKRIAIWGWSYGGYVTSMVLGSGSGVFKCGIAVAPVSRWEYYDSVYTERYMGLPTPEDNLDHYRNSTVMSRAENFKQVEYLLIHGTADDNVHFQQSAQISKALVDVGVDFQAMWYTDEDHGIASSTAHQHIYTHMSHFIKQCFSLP

Binder	pIC50 (DPP4) [pIC50]
B5	< 6
B6	< 6

The binders below were run against T1, recombinant human PREP (R&D systems, …) (assay: cell-based or functional assay).

Binder	pIC50 (PREP) [pIC50]
B5	< 6
B6	< 6
